Here are results for one molecule from patent US20080104734A1 (published 2008).

For the assay, the target named is SSPG1d peptide ([…]). The assay is described as follows: ELISA.

B1: polyhistidine tagged scFv-SSPG1d-peptide (scFv)
scFv: MDIVLTQSPAIMSASPGEKVTMTCSASSSVSYMHWYQQKSSTSPKLWIYDTSKLASGVPGRFSGSGSGNSYSLTISSMEAEDVATYYCFQGSGYPLTFGAGTKLEIKRGAGGSGGGGSGGGGSGGGGSQVQLQQSGAELVRPGSSVKISCKASGYAFSNYWMNWVKQRPGQGLEWIGQIYPGYGDAKYNGKFKGKATLTADISSSTAYMQLSSLTSEDSAVYFCARSSYEANWGQGTLVTVSALEHHHHHH
With B1, the Kd is 0.0267 µM.

The term Kd denotes the constant that tells how readily two partners part at equilibrium. Low readings indicate a tighter complex, high ones a looser complex.
